Data on four molecules can be found in patent publication US20130195872A1 (NOVIMMUNE S A, published 2013).

The target of experiment [1] is T1, human IL-17A homodimer (human, UniProt Q16552 20-155, limits assumed).
T1 sequence (looked up): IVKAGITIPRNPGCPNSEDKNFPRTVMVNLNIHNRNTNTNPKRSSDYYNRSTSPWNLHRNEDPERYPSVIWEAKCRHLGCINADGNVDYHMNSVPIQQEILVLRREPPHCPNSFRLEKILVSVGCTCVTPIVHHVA
As to the kind of experiment: cell-based or functional assay.

In experiment [2] the target is T2, human IL-17A/IL-17F heterodimer (human, UniProt Q16552 24-155; Q96PD4 31-163, limits assumed).
T2 sequence (looked up) 1: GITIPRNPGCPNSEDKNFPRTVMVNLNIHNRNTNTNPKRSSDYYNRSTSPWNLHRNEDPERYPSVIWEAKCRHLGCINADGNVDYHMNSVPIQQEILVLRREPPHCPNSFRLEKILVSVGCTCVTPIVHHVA
T2 sequence (looked up) 2: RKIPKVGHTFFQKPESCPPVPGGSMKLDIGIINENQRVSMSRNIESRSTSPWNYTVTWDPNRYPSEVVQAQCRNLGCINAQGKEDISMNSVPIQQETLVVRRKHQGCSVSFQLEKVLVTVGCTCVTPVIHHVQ
As to the kind of experiment: cell-based or functional assay.

The target of experiment [3] is T1, human IL-17A homodimer. Put plainly: FLISA, cytokine on beads.
In experiment [4] the target is T3, cynomolgus IL-17F homodimer (cynomolgus, UniProt G7P4V0 31-163).
T3 construct: range 31-163; Produced in house in PEAK cells, His-tagged, predominantly disulfide-linked homodimer; also called cyIL-17F; cnIL-17F; not shown: N-terminal His tag
T3 sequence: T2 sequence (looked up) 2 with G22E, I29T, R73K, N74H, V100L, I129V
As to the kind of experiment: FLISA, cytokine on beads.

In experiment [5] the target is T4, mouse IL-17F homodimer (mouse, UniProt Q7TNI7 29-161, limits assumed).
T4 sequence (looked up): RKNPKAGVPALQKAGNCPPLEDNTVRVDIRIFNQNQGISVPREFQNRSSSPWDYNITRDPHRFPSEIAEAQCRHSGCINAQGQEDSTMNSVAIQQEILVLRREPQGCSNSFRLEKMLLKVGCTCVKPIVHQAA
Put plainly: cell-based or functional assay.

For experiment [6], the target named is T5, mouse IL-17A homodimer (mouse, UniProt Q62386 26-158, limits assumed).
T5 sequence (looked up): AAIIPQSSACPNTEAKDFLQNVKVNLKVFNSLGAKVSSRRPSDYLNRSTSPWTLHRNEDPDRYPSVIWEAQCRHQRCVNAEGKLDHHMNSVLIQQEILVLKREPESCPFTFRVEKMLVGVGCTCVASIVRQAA
Put plainly: cell-based or functional assay.

Experiment [7] addresses T6, mouse IL-17A/IL-17F heterodimer (mouse, UniProt Q62386 26-158; Q7TNI7 29-161, limits assumed).
T6 sequence (looked up) 1: T5 sequence (looked up)
T6 sequence (looked up) 2: T4 sequence (looked up)
Put plainly: cell-based or functional assay.

A further experiment has as its target T7, rat IL-17F homodimer (rat, UniProt Q5BJ95 29-161).
T7 sequence (looked up): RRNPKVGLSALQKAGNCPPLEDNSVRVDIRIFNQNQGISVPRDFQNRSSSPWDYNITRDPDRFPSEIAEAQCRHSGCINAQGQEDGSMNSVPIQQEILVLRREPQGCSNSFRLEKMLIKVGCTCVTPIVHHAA
Put plainly: cell-based or functional assay.

In experiment [8] the target is T8, rat IL-17A homodimer (rat, UniProt Q61453 18-150, limits assumed).
T8 sequence (looked up): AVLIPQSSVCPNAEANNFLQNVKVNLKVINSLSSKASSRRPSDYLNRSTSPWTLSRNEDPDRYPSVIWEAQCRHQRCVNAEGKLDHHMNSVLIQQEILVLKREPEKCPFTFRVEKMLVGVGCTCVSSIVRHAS
Put plainly: cell-based or functional assay.

Experiment [9] concerns the target T1, human IL-17A homodimer. As to the kind of experiment: cell-based or functional assay. This is another data set of the same source.
Experiment [10] concerns the target T9, cynomolgus IL-17A homodimer (cynomolgus, UniProt A0A2K5TTB0 20-155).
T9 sequence: T1 sequence (looked up) with T7A, P12S, N38S, I81V, N82K, P108R
Put plainly: cell-based or functional assay.

Experiment [11] has as its target T9, cynomolgus IL-17A homodimer. Put plainly: cell-based or functional assay. This is another data set of the same source.
The target in experiment [12] is cynomolgus IL-17A/IL-17F heterodimer (cynomolgus). Put plainly: cell-based or functional assay.
Experiment [13] concerns the target T1, human IL-17A homodimer. As to the kind of experiment: SPR Biacore, mAb captured, cytokine as analyte. (In general: In SPR one partner is held on a chip, and binding of the other changes the refractive index at the surface.)
In experiment [14] the target is T9, cynomolgus IL-17A homodimer. As to the kind of experiment: SPR Biacore, mAb captured, cytokine as analyte.
For experiment [15], the target named is T10, cynomolgus IL-17A/IL-17F heterodimer (cynomolgus).
T10 construct: Produced in house in PEAK cells; how the heterodimer was made is not described; also called cyIL-17A-F heterodimer; cynomolgus IL-17A/F
As to the kind of experiment: SPR Biacore, mAb captured, cytokine as analyte.

The target in experiment [16] is T4, mouse IL-17F homodimer. Put plainly: SPR Biacore, mAb captured, cytokine as analyte.
The target of experiment [17] is T5, mouse IL-17A homodimer. As to the kind of experiment: SPR Biacore, mAb captured, cytokine as analyte.
In experiment [18] the target is T6, mouse IL-17A/IL-17F heterodimer. As to the kind of experiment: SPR Biacore, mAb captured, cytokine as analyte.
In experiment [19] the target is T8, rat IL-17A homodimer. Put plainly: SPR Biacore, mAb captured, cytokine as analyte.

Positions count from the first letter of the chain named.

B1: 5E12 antibody (antibody, IgG4, V domains shown)
VH: QVQLVQSGGGLVQPGRSLRLSCAASGFTFDDYAMHWVRQAPGKGLEWVSGISWNSGTIGYADSVKGRFTISRDNAKNSLYLQMNSLRAEDTALYYCAKELYISDWDSYSYGMDVWGQGTTVTVSS
VL: not shown
notes: also called Mab05; 5E12 IgG4
Regarding B1, in the experiment with human IL-17A homodimer [1], the “IC50, IL-6 secretion by MEF cells, cytokine at 5 ng/ml” value (“IC50, IL-6 secretion … at 5 ng/ml” for short) was over 1000 nM. Further, the “IC50, IL-6 secretion by MEF cells, cytokine at 17.5 ng/ml” value (from here on “IC50, IL-6 secretion … at 17.5 ng/ml”) in experiment [2] is over 1000 nM. The results for the binding result (with human IL-17A homodimer [3]; in [4]) were “no binding” and “binds”, respectively.

B2: 39F12A antibody (antibody, V domains shown)
VH: QVQLVQSGAEVKKPGSSVKVSCKASGGTLSSYAFSWVRQAPGQGLEWMGGIIPFFGTTNYAQKFQGRVIITADESTNTAYMELSGLRSEDTAVYYCARDRDYYGLGSPFYYYGMDVWGQGTTVTVSS
VL: EIVLTQSPDFQSVTPKEKVTITCRASQSIGSSLHWYQQKPDQSPKLLIKYASQSFSGVPSRFSGSGSGTDFTLTINSLEAEDAATYYCHQSSSLPWTFGQGTKVEIK
Take B2: the “IC50, IL-6 secretion … at 17.5 ng/ml” value in experiment [2] came out at 4.4 nM. In addition, the “IC50, IL-6 secretion by MEF cells, cytokine at 50 ng/ml” value with mouse IL-17F homodimer [5] was 6.2 nM; in experiment [7], 170 nM. Moreover, the “IC50, IL-6 secretion … at 5 ng/ml” value with mouse IL-17A homodimer [6] and in the experiment with rat IL-17A homodimer [8] was over 1000 nM each time. In the experiment with rat IL-17F homodimer, the “IC50, IL-6 secretion by MEF cells, cytokine at 25 ng/ml” value is 0.71 nM. For the same molecule, the “IC50, IL-6 secretion by HFFF2 human fibroblasts, cytokine at 25 ng/ml” value with human IL-17A homodimer [9] turned out to be 21 nM; in [10], 20 nM.

B3: 41B10 antibody (antibody, IgG4, V domains shown)
VH: not shown
VL: DIQMTQSPSSLSASVGDRVTITCRASQGISSWLAWYQQKPEKAPKSLIYAASSLQSGVPSRFSGSGSGTDFTLTISSLQPEDFATYYCQQYNSYPITFGQGTRLEIK
notes: also called 41B10 IgG4
In the case of B3, the “IC50, IL-6 secretion … at 5 ng/ml” value with human IL-17A homodimer [1] is over 1000 nM. Besides, in [2], the “IC50, IL-6 secretion … at 17.5 ng/ml” value was over 1000 nM. For the same molecule, the binding result in the experiment with human IL-17A homodimer [3] is listed as “no binding”; in experiment [4], “binds”.

B4: 15E6FK antibody (antibody, V domains shown)
VH: EVQLVESGGGLVQPGRSLRLSCAASGFTFDDYAMHWVRQAPGKGLEWVSGINWSSGGIGYADSVKGRFTISRDNAKNSLYLQMNSLRAEDTALYYCARDIGGFGEFYWNFGLWGRGTLVTVSS
VL: not shown
notes: kappa light chain (captured by anti-human IgG-kappa); also called mAb 15E6FK; 15E6FK IgG1
In general, Kd refers to a measure of binding affinity in units of concentration. Low values mean tighter binding, high ones weaker binding. Take B4: the “IC50, IL-6 secretion … at 5 ng/ml” value is 0.18 nM with human IL-17A homodimer [1] and 0.04 nM in experiment [11]. Moreover, in [12], the “IC50, IL-6 secretion by MEF cells, cytokine at 25 ng/ml” value turned out to be 0.08 nM. In addition, the “IC50, IL-6 secretion by MEF cells, cytokine at 50 ng/ml” value (with mouse IL-17F homodimer [5]; in [7]) was over 1000 nM each time. The results for the “IC50, IL-6 secretion by HFFF2 human fibroblasts, cytokine at 25 ng/ml” value (in the experiment with human IL-17A homodimer [9]; in [10]) were 0.83 nM and 0.76 nM, respectively. Further, the Kd was determined as 0.0117 nM with human IL-17A homodimer [13]; 0.0104 nM in [14]; 0.0394 nM in experiment [15]; 0.236 nM in the experiment with mouse IL-17F homodimer [16]; 0.524 nM in experiment [18]. The binding result with mouse IL-17A homodimer [17] and with rat IL-17A homodimer [19] was “no binding (tested: up to 90 nM cytokine)” in each case.
